Reference: the supplement of paper PMC10567573
± gives the standard deviation.

Experiment: protein stability index of a GFP-peptide fusion (GPS, HEK-293T) (PSI 1-6); higher = more stable
[1] = treatment: DMSO, c terminus: a fixed tail appended
[2] = treatment: MLN4924 1 uM, 8 h, c terminus: a fixed tail appended
[3] = treatment: DMSO, c terminus: native
[4] = treatment: MLN4924 1 uM, 8 h, c terminus: native
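Further: 24-mer peptide tiles fused after GFP, lentivirally expressed, FACS-sorted into six equal bins by GFP/DsRed ratio, decoded by Illumina sequencing, PSI is the read-weighted mean bin number.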

Sequence	protein stability index [1]	protein stability index [2]	protein stability index [3]	protein stability index [4]
SMPVRLLGHSPVLRNITNSQAPDG [CDC25B]	3.23 ± 0.22	3.4 ± 0.24	–	–
CQRSRYRDSLTQPDEEPMHYGNIM [RSPH3]	3.37 ± 0.39	3.45 ± 0.3	–	–
HNIPLETIIPILQHLKYKEHPEAL [INTS3]	2.51 ± 0.31	2.55 ± 0.38	–	–
DEKDRIITAFYNEARARARANRGI [DNAJC4]	4 ± 0.35	4.16 ± 0.17	–	–
LEPPTMRKKRLLDRKVLLKSDSPT [GOLPH3L]	4.38 ± 0.21	4.54 ± 0.17	–	–
KGDRGLPLEGSAKGKVQAELSQPL [RBBP5]	4.82 ± 0.33	4.75 ± 0.11	–	–
YVRMVFLALYVLFLADEEFDVVVC [ALG2]	3.1 ± 0.71	2.93 ± 1	–	–
HGSGGSGYPAAPPAVPFAPHFLQG [TBX6]	2.94 ± 0.3	3.06 ± 0.31	–	–
FESFPAGSTLIFYKYCDHENAAFK [TOR1AIP2]	2.17 ± 0.14	2.17 ± 0.23	–	–
SHSCYHDTRSGFWYVCRTQGVEGD [TRIM35]	2.52 ± 0.27	2.36 ± 0.29	–	–
EADGSTNNGIFQINSRRWCSNLTP [SPACA3]	3.43 ± 0.33	3.66 ± 0.32	–	–
KLPLPVTIKSHLKSFSMANGMNAV [RAB40C]	2.36 ± 0.18	2.46 ± 0.093	–	–
AGQEGEDTLRRRLLAPEAGSHPQQ [TOR1AIP2]	3.22 ± 0.89	3.8 ± 0.52	–	–
GRGGRDRFTAESYTVLGDTLIDGG [FSD1]	4.06 ± 0.26	4.08 ± 0.52	–	–
SQVSWEQDLKLFLQEPGVFSPTPP [FCHSD1]	3.36 ± 0.4	3.61 ± 0.1	–	–
AEEETLSRELEPELRRRRYEYDHW [ALKBH7]	4.35 ± 0.29	4.59 ± 0.22	–	–
ERLTAPEILLHPWFESVLEPGYID [TRIB1]	3.26 ± 0.21	3.3 ± 0.3	–	–
ESPSFLSLRKGASLSNGQGSRVLH [NCK2]	3.83 ± 0.27	3.92 ± 0.16	–	–
PAIVEAGGMQALGLHLTDPSQRLV [CTNNB1]	3.79 ± 0.23	3.83 ± 0.15	–	–
DFRVKYETELAMRQSVENDIHGLR [KRT18]	3.56 ± 0.2	3.68 ± 0.1	–	–
MAHGYGEESEEERGLEPGKGRHHR [CHGB]	5.22 ± 0.27	5.34 ± 0.11	–	–
TRSKSDPVLHPSEERAAPVLSCEA [FAM189A2]	5.49 ± 0.25	5.61 ± 0.15	–	–
DLKPENIMLLDKNVPNPRIKLIDF [DAPK3]	2.79 ± 0.084	2.93 ± 0.21	–	–

Sequence	protein stability index [1]	protein stability index [2]	protein stability index [3]	protein stability index [4]
AGPGGGAERRRAGRLLLTLPLLRQ [ESRRA]	2.53 ± 0.29	2.84 ± 0.21	–	–
DGGALLGVLQYRGAELHLQPLEGG [ADAMTS4]	2.06 ± 0.94	2.52 ± 0.73	–	–
VEGEQQAWFGFAGTPGYLSPEVLR [CAMK2A]	3.48 ± 0.21	3.49 ± 0.4	–	–
ERKNAEMYKLSSEQFHEAASKMES [CHCHD6]	4.83 ± 0.27	5.08 ± 0.16	–	–
FTLGDCDVIQALDLSVPLMDVGET [FKBP8]	3.53 ± 0.093	3.54 ± 0.24	–	–
TLALQGTQGQEKMMMMGPKEEEQS [ZNF232]	5.29 ± 0.31	5.43 ± 0.14	–	–
GISGTTTKKGDLQWNAGEKKLTGG [SNAP91]	4.43 ± 0.077	4.86 ± 0.41	–	–
HILKARKVLTEPEVRYYLRQIVSG [PLK2]	2.17 ± 0.53	2.33 ± 0.43	–	–
AHAGAVHNGKIYISGGVHNGEYVP [KLHL14]	3.03 ± 0.28	2.82 ± 0.41	–	–
ERSLVLDRLASNVAKRKSSMPQKF [IKZF1]	3.6 ± 0.23	3.84 ± 0.29	–	–
RGRAVLREAGFHQYEVSNFARNGA [RSAD1]	3.36 ± 0.54	3.37 ± 0.48	–	–
SEEIRFYQLGEEAMEKFREDEGFL [KCNA3]	4.37 ± 0.27	4.44 ± 0.12	–	–
KAKKNKDKYVGVSSDSVGGFRYSE [CLINT1]	4.53 ± 0.19	4.58 ± 0.24	–	–
LVSQSNDLSSLRAKYPHDVVNHLS [SPACA9]	3.09 ± 0.19	3.19 ± 0.21	–	–
QTEELKYSIDQEFLKEYFPIEVVT [NLN]	3.23 ± 0.37	3.49 ± 0.29	–	–
EKLITWLNKELNENQLVRKQDVLG [SASS6]	2.12 ± 0.44	3.1 ± 0.26	–	–
DILVLLGASLYAISNVCEEYIVKK [SLC35F2]	3.41 ± 0.61	2.89 ± 0.47	–	–
QIKRKARNEGRNRRRQQVLPLKS [CDKL4]	–	–	2.87 ± 0.24	3.44 ± 0.35
APSPSPVTPAQNNLLQPNFEAAFG [SNAP91]	4.43 ± 0.089	4.54 ± 0.38	–	–
GLQILGHTLRASMRELGLLIFFLF [KCNA4]	2.95 ± 0.6	2.96 ± 0.25	–	–
SVVDHPMPEERASKYENYFSASER [HESX1]	4.73 ± 0.37	4.76 ± 0.17	–	–
EIDTPDKFGRTCLHAAAAGGNVEC [ANKRD44]	4.24 ± 0.16	4.37 ± 0.23	–	–
ETFAFQAEIAQLMSLIINTFYSNK [HSP90AB1]	2.84 ± 0.66	2.63 ± 0.54	–	–

Sequence	protein stability index [1]	protein stability index [2]	protein stability index [3]	protein stability index [4]
DNAVQGLRRHEILQWVLQTDSQQ [LRRC59]	–	–	3.37 ± 0.2	3.44 ± 0.24
HSGFEDELSEVLENQSSQAELKEA [CHGA]	5.5 ± 0.29	5.27 ± 0.33	–	–
PASQAASSSSASADLLAGFGGSFM [SNAP91]	3.89 ± 0.24	3.73 ± 0.12	–	–
LRNITNSQAPDGRRKSEAGSGAAS [CDC25B]	4.89 ± 0.24	5.1 ± 0.16	–	–
TVNTHYFSIDEELVYENFYADFGP [CDC14A]	2.37 ± 0.28	2.67 ± 0.4	–	–
DFGLAARLEPLEHRRRTICGTPNY [PLK2]	3.17 ± 0.28	3.13 ± 0.21	–	–
GRAQDDVSEWASKAKANGITMYAV [MATN2]	2.56 ± 0.36	2.62 ± 0.39	–	–
QAIVTEDKTDISSGRARQQDEEML [MLH1]	5.23 ± 0.22	5.38 ± 0.14	–	–
VRERILGADNIDVSHPIIYRGAVY [FEM1B]	2.13 ± 0.29	2.57 ± 0.32	–	–
FSSSSQEAFAASAVGSGERRGGGP [ZBTB22]	3.66 ± 0.32	4.03 ± 0.34	–	–
RILQDEQYLMASDMAGKIKLWDLR [DCAF4]	2.75 ± 0.34	3.01 ± 0.12	–	–
DLVPKQAIQVQEADEAGWGGSGG [DLX1]	–	–	2.96 ± 0.75	3.09 ± 0.087
PELRQLVLSLLSLEPAQRPPLSHI [NEK8]	2.56 ± 0.41	2.47 ± 0.46	–	–
IKNDKYGPWLEWEIMLQYCFPRLD [PRIM1]	–	3 ± 1	–	–
ICEDSFDGRSLSKLNLCEDGPCHK [SCARA5]	4.55 ± 0.15	4.57 ± 0.16	–	–
CKLTCQAQALGYYYVLEPRVVDGT [ADAMTS4]	2.86 ± 2	2.77 ± 1.1	–	–
LNDAKRELRFLLVYLHGDDHQDSD [FAF2]	2.31 ± 0.36	2.23 ± 0.25	–	–
KYPSHSFIGEESVAAGEKSILTDN [IMPA1]	4.66 ± 0.24	4.75 ± 0.1	–	–
QCKDALEIYKRFLTRMTRVSEFLK [SNAP91]	2.77 ± 0.9	2.51 ± 0.24	–	–
CTSVNTIYDNAVQGLRRHEILQWV [LRRC59]	2.3 ± 0.17	2.13 ± 0.2	–	–
RVRTVLNEKQLHTLRTCYAANPRP [ISL2]	2.74 ± 0.27	2.96 ± 0.2	–	–
LVAEVPKEHWTPEGHSIVGFAMYY [SAT1]	2.81 ± 0.58	2.57 ± 0.39	–	–
DFMELGRSIPDTQLEQVIESQKAN [ACSBG2]	5.16 ± 0.26	4.99 ± 0.26	–	–

Sequence	protein stability index [1]	protein stability index [2]	protein stability index [3]	protein stability index [4]
GCLENMPEADCIPKEQLSTSFQWV [PLK2]	3.57 ± 0.2	3.45 ± 0.36	–	–
DLGEGKICFCCEEFQPAKCTDKEN [FAM189A2]	4.24 ± 0.34	4.07 ± 0.085	–	–
TPATPATLSASSSAGGSRTPAMSS [TFE3]	4.99 ± 0.23	4.95 ± 0.3	–	–
LEEELRQLKEEMARHLREYQELLN [PRPH]	3.27 ± 0.11	3.62 ± 0.32	–	–
GLQHAPEPDAADGPYDPNSVRISF [SMAD6]	4.24 ± 0.38	4.49 ± 0.27	–	–
NQHCLDTAFNFFKMAVSRHLTRGR [BRF1]	2.19 ± 0.12	2.25 ± 0.22	–	–
SRFYEIHARARDQGQPAMEGHCVI [PCDHGC5]	2.82 ± 0.27	2.54 ± 0.15	–	–
LLDELMGRDRNLAPDEKRSNVRWD [LUC7L3]	3.59 ± 0.21	3.64 ± 0.19	–	–
EGGDESDLSSESSIKKKFLKRKGK [EHMT1]	5.54 ± 0.22	5.34 ± 0.56	–	–
IFGDLCGNMANLSLHDHDGSSGAS [DVL3]	3.9 ± 0.45	4.27 ± 0.17	–	–
LGSSAASTALERPSFLSQTGHGVS [FCHO1]	4.28 ± 0.45	4.2 ± 0.24	–	–
LMADKVLRWERAWFPPAIMGVVSL [ARL6IP1]	3.13 ± 0.66	2.45 ± 0.86	–	–
EAVAGAEGREAPALVAAGGAPEDD [DENND6A]	5.63 ± 0.16	5.74 ± 0.12	–	–
SAFADIIHSLKESGQLWLDAYLHQ [FADS1]	2.16 ± 0.4	2.25 ± 0.49	–	–
EVDFFQRYFIADLPHLQDSFVDKL [INTS4]	2.23 ± 0.43	2.65 ± 0.25	–	–
IPGLPGLRGLPGERGTPGLPGPKG [SCARA5]	4.34 ± 0.41	4.42 ± 0.22	–	–
SVYVKLAGEREDLWAGSKGKEFGY [MIA2]	2.52 ± 0.23	2.85 ± 0.15	–	–
RSLQLRIQELELQAQIHGLPVPPT [TFE3]	3.01 ± 0.19	2.89 ± 0.21	–	–
NFFNQVLMLGKTSISDLSEHVFDL [PDS5B]	2.56 ± 0.54	2.63 ± 0.32	–	–
GAGAVSRTCTAPLDRLKVLMQVHA [SLC25A25]	2.32 ± 0.48	2.41 ± 0.14	–	–
